Article PMC7757244

Biological target: Mut FcγRIIIa (human) (UniProt P08637)
Experiment: SPR

UniProt P08637, sequence (P08637 17-254): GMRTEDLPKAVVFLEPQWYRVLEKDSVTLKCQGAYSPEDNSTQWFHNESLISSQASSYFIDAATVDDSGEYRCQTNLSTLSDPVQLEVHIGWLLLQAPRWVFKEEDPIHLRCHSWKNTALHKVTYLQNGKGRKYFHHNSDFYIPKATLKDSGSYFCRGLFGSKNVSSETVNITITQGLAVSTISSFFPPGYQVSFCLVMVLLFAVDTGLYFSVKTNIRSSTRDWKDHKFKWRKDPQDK

Kd [µM] | koff [s⁻¹] | kon [M⁻¹ s⁻¹] | Substance
1.38 | 0.0544 | 39600 | Expi293-Rituximab (antibody)
1.95 | 0.0583 | – | Expi293-Trastuzumab (antibody)
2.03 | 0.0803 | 39900 | ExpiCHO-Rituximab (antibody)
2.52 | 0.0893 | 36200 | ExpiCHO-Trastuzumab (antibody)
